Data reported in US20250179161A1.

Target: Amyloid Beta (Aβ) 1-42 (human)
Test: cell-based or functional assay

Sequence of Amyloid Beta (Aβ) 1-42 (human) (peptide, as listed by the source): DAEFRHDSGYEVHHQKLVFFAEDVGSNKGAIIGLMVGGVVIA

Avg. pg/mL Aβ1-42 left after ex vivo phagocytosis, APP/PS1 mouse brain sections with primary murine microglia, mean: 92600 pg/mL
Aβ1-42 (pg/ml) left after ex vivo phagocytosis, human AD brain sections with primary murine microglia: 185000 pg/mL
Mean (Aβ spots per neuron), isotype control at 1:50 mAb:Aβ42, soluble Aβ 1 µM, rat hippocampal neurons (Aβ spots per neuron): 58.7
Substance: human IgG isotype control antibody
